This assay addresses EPHA4-Flag protein purified from transfected 293FT cells (human, UniProt P54764 20-986). Description: pull-down.

Chain of EPHA4-Flag protein purified from transfected 293FT cells (P54764 20-986): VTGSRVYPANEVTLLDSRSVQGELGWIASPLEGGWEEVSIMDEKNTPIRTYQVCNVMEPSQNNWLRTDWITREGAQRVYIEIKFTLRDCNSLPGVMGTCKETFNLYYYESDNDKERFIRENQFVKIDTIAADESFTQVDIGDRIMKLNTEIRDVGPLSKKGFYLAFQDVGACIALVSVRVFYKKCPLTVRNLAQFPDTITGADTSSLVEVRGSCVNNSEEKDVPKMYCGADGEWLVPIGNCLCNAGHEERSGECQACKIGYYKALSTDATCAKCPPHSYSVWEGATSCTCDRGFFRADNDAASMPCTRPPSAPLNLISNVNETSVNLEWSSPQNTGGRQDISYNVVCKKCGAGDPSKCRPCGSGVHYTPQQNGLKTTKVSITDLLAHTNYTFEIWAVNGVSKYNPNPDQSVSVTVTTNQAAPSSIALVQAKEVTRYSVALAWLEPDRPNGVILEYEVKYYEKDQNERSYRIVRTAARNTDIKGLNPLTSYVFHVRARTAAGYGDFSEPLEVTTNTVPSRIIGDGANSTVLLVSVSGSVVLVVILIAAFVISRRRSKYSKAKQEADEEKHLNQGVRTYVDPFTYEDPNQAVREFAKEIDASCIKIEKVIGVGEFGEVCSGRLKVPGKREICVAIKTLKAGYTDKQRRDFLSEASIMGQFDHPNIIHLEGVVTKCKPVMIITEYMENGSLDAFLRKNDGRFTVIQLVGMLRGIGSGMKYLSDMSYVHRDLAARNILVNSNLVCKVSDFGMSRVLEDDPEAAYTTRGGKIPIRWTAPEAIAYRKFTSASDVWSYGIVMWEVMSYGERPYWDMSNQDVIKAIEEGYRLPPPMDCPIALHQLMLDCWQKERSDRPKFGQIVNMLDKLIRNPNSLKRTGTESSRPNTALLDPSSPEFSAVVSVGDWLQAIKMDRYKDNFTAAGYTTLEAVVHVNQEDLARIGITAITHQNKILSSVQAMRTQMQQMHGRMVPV

B1: GST-GMPR, bacterially purified (enzyme, human)
chain: MPRIDADLKLDFKDVLLRPKRSSLKSRAEVDLERTFTFRNSKQTYSGIPIIVANMDTVGTFEMAAVMSQHSMFTAIHKHYSLDDWKLFATNHPECLQNVAVSSGSGQNDLEKMTSILEAVPQVKFICLDVANGYSEHFVEFVKLVRAKFPEHTIMAGNVVTGEMVEELILSGADIIKVGVGPGSVCTTRTKTGVGYPQLSAVIECADSAHGLKGHIISDGGCTCPGDVAKAFGAGADFVMLGGMFSGHTECAGEVFERNGRKLKLFYGMSSDTAMNKHAGGVAEYRASEGKTVEVPYKGDVENTILDILGGLRSTCTYVGAAKLKELSRRATFIRVTQQHNTVFS
Take B1: the binding result was “binds”.

B2: GST-GMPR^Y267F, bacterially purified (enzyme, human)
chain: MPRIDADLKLDFKDVLLRPKRSSLKSRAEVDLERTFTFRNSKQTYSGIPIIVANMDTVGTFEMAAVMSQHSMFTAIHKHYSLDDWKLFATNHPECLQNVAVSSGSGQNDLEKMTSILEAVPQVKFICLDVANGYSEHFVEFVKLVRAKFPEHTIMAGNVVTGEMVEELILSGADIIKVGVGPGSVCTTRTKTGVGYPQLSAVIECADSAHGLKGHIISDGGCTCPGDVAKAFGAGADFVMLGGMFSGHTECAGEVFERNGRKLKLFFGMSSDTAMNKHAGGVAEYRASEGKTVEVPYKGDVENTILDILGGLRSTCTYVGAAKLKELSRRATFIRVTQQHNTVFS
For B2, the binding result is given as “binds”.

These data come from paper PMC9620470 (Cell chemical biology, 2022).
